Reference: patent publication US20240390512A1, “METHODS OF TREATING CHEMOTHERAPY-RESISTANT CANCER WITH AN ANTIBODY-DRUG CONJUGATE” (DAIICHI SANKYO COMPANY, LIMITED, priority 2021, published 2024)
Where a chain is given by its changes, count along the chain named.

B1: rG056: rat anti-human CDH6 monoclonal antibody produced by hybridoma rG056; variable regions SEQ ID NO: 30 and 35 (antibody, listed as Rattus norvegicus, V domains shown)
VL: DVQMTQSPSSLAASPGESVSISCRATKSIGIYLAWYQQKPGKTFKLLIYSGSTLQSGTPSRFSGSGSGTDFTLTIRSLEPEDFGLYFCQQFYENPFTFGSGTKLEIRRA
VH: EVQLQESGPGLVKPSQSLSLTCSVTDYSITTYFWGWIRKFPGNKMEWMGYMSYRGGTSYNPSLKSRISITRDTSKNQFFLQLNSVTTEDTATYYCARCPNYGGHSLVFDYWGQGVMVTVSS
B2: rG019: rat anti-human CDH6 monoclonal antibody produced by hybridoma rG019; variable regions SEQ ID NO: 10 and 15 (antibody, listed as Rattus norvegicus, V domains shown)
VL: DIQMTQSPSLLSASVGDRVTLNCKASQNIYKNLAWYQQKLGEGPKLLIYDANTLQTGIPSRFSGSGSGSDFTLTISSLQPEDVATYFCQQYYSGWAFGGVTNLELKRA
VH: QVQLQQSGAELVKPGSSVKISCKASGYTFTRNFMHWIKQQPGNGLEWIGWIYCGDGETEYNQKFNGKATLTADRSSSTAYMELSRLTSEDSAVYFCARGVYGGFAGGYFDFWGQGVMVTVSS
B3: rG055: rat anti-human CDH6 monoclonal antibody produced by hybridoma rG055; variable regions SEQ ID NO: 20 and 25 (antibody, listed as Rattus norvegicus, V domains shown)
VL: DVQMTHSPSYLAASPGESVSISCKTSKNISNYLVWYQQKPGEAYKLLIYSGSTLQSGTPSRFSGSGSGTDFTLTIRSLEPEDFGLYFCQQYYEKPFTFGSGTKLEIKRA
VH: EVQLQESGPGLVRPSQSLSLSCSVTDYSITSNYWGWIRRFPGNKMEWMGYITYSGYTSYNPSLQSRISITRDTSKNQFFLQLNSVTAEDTATYYCARSINHGGYSYVVDAWGPGASVTVSS
B4: rG061: rat anti-human CDH6 monoclonal antibody produced by hybridoma rG061; variable regions SEQ ID NO: 40 and 45 (antibody, listed as Rattus norvegicus, V domains shown)
VL: B3 VL with H6Q, T25A, S26T, N28S, V34A, L46V, F87S, F96L
VH: EVQLQESGPGLVKPSQSLSLTCSVTGYSITTYYWGWIRKFPGNKMEWMGYISYSGRTSYNPSLKSRMSITRDASKNQFFLQLNSVTTDDTATYYCARSPINHGGYWYFDFWGPGTMVTVSS

The molecules below were run on cynomolgus monkey CDH6 (assay: Hybridoma screening by Cell-ELISA and flow cytometry). Conditions: hybridoma culture supernatant; cells transfected with pcDNA3.1-cynoCDH6.
Format: binding
Experimental: 293α cells (a stable expression cell line derived from HEK293 cells expressing integrin αv and integrin β3) were prepared at 5×10^5 cells/mL in DMEM medium supplemented with 10% FBS. In accordance with transduction procedures for using Lipofectamine 2000 (Thermo Fisher Scientific Inc.), DNA of pcDNA3.1-hCDH6 or pcDNA3.1-cynoCDH6, or pcDNA3.1 as a negative control was introduced into the 293α cells, and the cells were dispensed in an amount of 100 μL/well onto a 96-well plate (Corning Inc.). Thereafter, the cells were cultured under conditions of 37° C. and 5% CO2 in DMEM medium supplemented with 10% FBS for 24 to 27 hours. The obtained transfected cells were used for Cell-ELISA in an adhesive state.
The culture supernatant of the 293α cells transfected with the expression vector prepared in Reference Example 1)-4-1 was removed, and the culture supernatant from each hybridoma was then added to the 293α cells transfected with pcDNA3.1-hCDH6 or pcDNA3.1-cynoCDH6, or pcDNA3.1. The cells were left standing at 4° C. for 1 hour. The cells in the wells were washed once with PBS (+) supplemented with 5% FBS, and thereafter, Anti-Rat IgG-Peroxidase antibody produced in rabbit (Sigma-Aldrich Co. LLC) that had been 500-fold diluted with PBS (+) supplemented with 5% FBS was added to the wells. The cells were left standing at 4° C. for 1 hour. The cells in the wells were washed three times with PBS (+) supplemented with 5% FBS, and thereafter, OPD coloring solution (which had been prepared by dissolving o-phenylenediamine dihydrochloride (Wako Pure Chemical Industries, Ltd.) and H2O2 in an OPD solution (0.05 M trisodium citrate, 0.1 M disodium hydrogen phosphate 12-water; pH 4.5), so that the substances became 0.4 mg/ml and 0.6% (v/v), respectively, was added in an amount of 100 μL/well to the wells. A coloring reaction was carried out with occasional stirring. Thereafter, 1 M HCl was added to the plate (100 μL/well) to terminate the coloring reaction, followed by measurement of the absorbance at 490 nm using a plate reader (ENVISION: PerkinElmer, Inc.).
293T cells were seeded in a 225-cm^2 flask (Sumitomo Bakelite Co., Ltd.) at 5×10^4 cells/cm^2, and the cells were then cultured overnight under conditions of 37° C. and 5% CO2 in DMEM medium supplemented with 10% FBS. pcDNA3.1-cynoCDH6 or pcDNA3.1 as a negative control was introduced into the 293T cells using Lipofectamine 2000, and the cells were further cultured overnight under conditions of 37° C. and 5% CO2. […]
The binding specificity to cynomolgus monkey CDH6 of an antibody produced from the human CDH6- and cynomolgus monkey CDH6-binding antibody-producing hybridomas that had been selected by Cell-ELISA in Reference Example 1)-4 was further confirmed by flow cytometry. […] The data was analyzed using FlowJo (Tree Star, Inc.). […]

cynomolgus monkey CDH6, sequence (as listed by the source): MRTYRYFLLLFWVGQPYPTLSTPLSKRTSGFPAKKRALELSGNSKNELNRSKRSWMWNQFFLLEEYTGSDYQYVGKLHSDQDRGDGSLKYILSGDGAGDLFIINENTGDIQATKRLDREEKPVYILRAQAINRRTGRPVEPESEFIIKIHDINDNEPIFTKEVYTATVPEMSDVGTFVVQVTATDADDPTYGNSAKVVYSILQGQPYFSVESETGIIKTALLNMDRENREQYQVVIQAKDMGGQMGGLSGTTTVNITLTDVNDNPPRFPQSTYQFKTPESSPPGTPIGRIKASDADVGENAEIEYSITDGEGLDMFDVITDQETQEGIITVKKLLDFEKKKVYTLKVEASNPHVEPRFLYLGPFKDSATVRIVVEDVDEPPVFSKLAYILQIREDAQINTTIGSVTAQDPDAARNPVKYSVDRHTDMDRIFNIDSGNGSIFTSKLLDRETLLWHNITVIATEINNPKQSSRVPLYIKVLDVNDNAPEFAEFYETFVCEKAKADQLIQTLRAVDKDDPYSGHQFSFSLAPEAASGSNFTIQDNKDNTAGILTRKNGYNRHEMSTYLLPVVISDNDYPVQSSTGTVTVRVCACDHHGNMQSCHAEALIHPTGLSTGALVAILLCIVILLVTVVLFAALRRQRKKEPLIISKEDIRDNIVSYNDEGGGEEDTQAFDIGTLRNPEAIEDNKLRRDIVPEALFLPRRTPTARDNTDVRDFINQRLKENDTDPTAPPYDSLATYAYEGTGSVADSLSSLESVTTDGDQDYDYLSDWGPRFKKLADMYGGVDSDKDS

Question: For B1, which “binding to monkey CDH6” value is on record?
Answer: The value was “bind specifically and strongly”.

Question: With B2 as the molecule, how does the “binding to monkey CDH6” value read?
Answer: The value was “bind specifically and strongly”.

Question: Which “binding to monkey CDH6” value does the source give for B3 here?
Answer: Its value is “bind specifically and strongly”.

Question: For B4, which “binding to monkey CDH6” value is on record?
Answer: Its value is “bind specifically and strongly”.
